In IntAct's records for PubMed 17662948:

Molecular target: rd23b_human RAD23B (UniProt P54727)
Sequence (P54727 whole entry): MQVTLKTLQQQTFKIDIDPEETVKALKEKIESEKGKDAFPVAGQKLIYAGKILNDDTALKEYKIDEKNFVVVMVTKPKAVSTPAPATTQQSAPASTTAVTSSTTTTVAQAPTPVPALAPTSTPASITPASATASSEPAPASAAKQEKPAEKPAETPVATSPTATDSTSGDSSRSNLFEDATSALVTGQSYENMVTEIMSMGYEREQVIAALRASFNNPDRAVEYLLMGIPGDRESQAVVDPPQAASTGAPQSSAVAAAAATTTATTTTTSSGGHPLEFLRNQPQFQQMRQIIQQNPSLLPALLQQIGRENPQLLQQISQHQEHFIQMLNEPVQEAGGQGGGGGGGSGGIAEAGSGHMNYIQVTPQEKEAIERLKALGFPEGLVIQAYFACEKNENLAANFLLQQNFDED

Sequence of Paired box protein Pax-3 (Mus musculus), P24610 K437R (P24610 whole entry K437R): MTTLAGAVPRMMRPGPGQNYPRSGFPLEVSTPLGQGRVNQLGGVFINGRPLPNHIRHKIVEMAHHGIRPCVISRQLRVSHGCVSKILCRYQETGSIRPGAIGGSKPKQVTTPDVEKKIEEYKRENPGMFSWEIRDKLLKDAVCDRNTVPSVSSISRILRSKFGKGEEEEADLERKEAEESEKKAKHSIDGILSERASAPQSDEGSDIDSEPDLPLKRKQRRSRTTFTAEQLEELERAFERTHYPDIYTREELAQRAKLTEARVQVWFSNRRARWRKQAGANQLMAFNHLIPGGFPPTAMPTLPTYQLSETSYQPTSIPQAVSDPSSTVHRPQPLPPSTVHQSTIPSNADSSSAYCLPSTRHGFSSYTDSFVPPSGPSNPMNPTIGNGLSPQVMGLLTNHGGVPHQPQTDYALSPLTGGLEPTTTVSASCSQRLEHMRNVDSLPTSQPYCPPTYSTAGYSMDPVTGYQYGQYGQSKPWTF
Sequence of Paired box protein Pax-3 (Mus musculus), P24610 K475R (P24610 whole entry K475R): as the sequence (P24610 whole entry K437R) above, with R437K, K475R counted along it

effect of a mutation on the interaction	Substance
decreasing interaction	Paired box protein Pax-3 (Mus musculus), P24610 K475R
decreasing interaction	Paired box protein Pax-3 (Mus musculus), P24610 K437R
